In patent publication US20140127225A1 (NEOTOPE BIOSCIENCES, published 2014):
Each block holds one binder with its values, some of them ahead of it.

Assays:
[1] = target: T1, human iC3b (purified; Complement Technology #A115) (human, UniProt P01024 23-667); assay: assay not described
T1 construct: range 23-667; Bought purified protein; chains held together by disulfide bonds; also called purified human iC3b

[2] = target: T1, human iC3b (purified; Complement …); assay: direct ELISA, plate coated with 10 ug/ml iC3b, goat anti-human-HRP, ABTS, OD405
Description: Costar RIA/EIA (Costar #3590) plate was coated with 100 ul/well of 10 ug/ml iC3b (Complement Technologies) at 4 degree overnight. At day 2, the plate was washed 5 times with washing buffer (TPBS+0.05% Tween 20) and blocked with 100 ul blocking buffer (PBS containing 1.5% BSA) per well for 1 hour at room temperature. Then the plate was washed 5 times with washing buffer and incubated with 100 ul per well of testing antibodies as indicated in the figure. After 1 hour of incubation at room temperature, the plate was washed again for 5 times with washing buffer and incubated with 1:4000 diluted Goat anti human-HRP (Jackson Immunoresearch, Code 109-036-098, lot 99937) in 100 ul blocking buffer per well.

[3] = target: T1, human iC3b (purified; Complement …); assay: sandwich ELISA; antigen captured by chicken anti-C3; reference C3 or C3b
Text: For secondary screening, C3, C3b and iC3b were used for testing cross-reactivity. The plate was coated with chicken anti-C3 antibody (LeeBio #CC3-80A) as the capture antibody. For primary screening, only iC3b was used for antigen capture. For antibody characterization, all C3 proteins (C3 (Complement Technology #A113); C3b (Complement Technology #A114); and iC3b (Complement Technology #A115)) were used for antigen capture. Supernatants from cells, control antibody, mouse anti-human iC3b (the A209 antibody (Quidel)), were used as detecting antibodies, respectively. Goat anti-mouse-HRP (Jackson ImmunoResearch #115-035-164) was used as the secondary Antibody. 1-Step ABTS (Thermo #37615) was used as the substrate.
The sandwich ELISA was performed for the two mice in Example 3. First, cell supernatants were only tested for binding to iC3b. C3, C3b, and iC3b were used in the secondary screening for testing cross-reactivity.

[4] = target: T1, human iC3b (purified; Complement …); assay: Biacore; reference C3
Description: (§1) A preliminary Biacore assay was done with four concentrations of either iC3b or one of the two potential cross-reactive complement species (e.g., C3b or C3) to assess relative cross-reactivity. Unlike ELISA, a two-fold difference in KD is not sufficient to establish specificity in the Biacore assay. An anti-mouse CM5 chip was prepared following manufacture protocol. Three antibodies (including 6G1) were captured at levels such that Rmax would fall between 25 and 50 RU. Four concentrations of either iC3b or cross-reacting protein were used. Both were from Complement Technologies as described above.

[5] = target: T2, human C3 (purified; Complement Technology #A113) (human, UniProt P01024 23-667; P01024 672-1663); assay: Biacore; antibody captured on anti-mouse CM5 chip, four concentrations of antigen; Biacore; 6G1 captured on chip, C3 in solution: weak binding, >10x weaker than iC3b
T2 construct: range 23-667;range 672-1663; Bought purified protein
T2 sequence (P01024 23-667 limits assumed, form in doubt, chain 1 of 2): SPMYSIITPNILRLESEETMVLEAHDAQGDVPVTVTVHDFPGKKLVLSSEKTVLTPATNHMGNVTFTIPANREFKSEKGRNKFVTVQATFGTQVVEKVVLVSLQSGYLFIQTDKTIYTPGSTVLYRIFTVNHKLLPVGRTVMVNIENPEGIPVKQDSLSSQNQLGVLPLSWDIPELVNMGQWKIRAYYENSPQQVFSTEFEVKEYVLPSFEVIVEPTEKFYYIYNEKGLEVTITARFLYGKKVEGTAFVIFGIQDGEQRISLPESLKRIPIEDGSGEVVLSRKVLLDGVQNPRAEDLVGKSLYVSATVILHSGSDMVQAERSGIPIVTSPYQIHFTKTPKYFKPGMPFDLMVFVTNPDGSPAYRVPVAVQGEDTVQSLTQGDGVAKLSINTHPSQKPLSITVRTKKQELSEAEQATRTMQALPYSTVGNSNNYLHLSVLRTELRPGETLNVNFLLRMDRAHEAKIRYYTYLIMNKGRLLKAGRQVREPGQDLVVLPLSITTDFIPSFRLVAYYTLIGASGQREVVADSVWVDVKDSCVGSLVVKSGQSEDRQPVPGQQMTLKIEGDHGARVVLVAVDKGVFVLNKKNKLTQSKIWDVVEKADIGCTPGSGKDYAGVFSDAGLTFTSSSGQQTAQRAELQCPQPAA
T2 sequence (P01024 672-1663 limits assumed, form in doubt, chain 2 of 2): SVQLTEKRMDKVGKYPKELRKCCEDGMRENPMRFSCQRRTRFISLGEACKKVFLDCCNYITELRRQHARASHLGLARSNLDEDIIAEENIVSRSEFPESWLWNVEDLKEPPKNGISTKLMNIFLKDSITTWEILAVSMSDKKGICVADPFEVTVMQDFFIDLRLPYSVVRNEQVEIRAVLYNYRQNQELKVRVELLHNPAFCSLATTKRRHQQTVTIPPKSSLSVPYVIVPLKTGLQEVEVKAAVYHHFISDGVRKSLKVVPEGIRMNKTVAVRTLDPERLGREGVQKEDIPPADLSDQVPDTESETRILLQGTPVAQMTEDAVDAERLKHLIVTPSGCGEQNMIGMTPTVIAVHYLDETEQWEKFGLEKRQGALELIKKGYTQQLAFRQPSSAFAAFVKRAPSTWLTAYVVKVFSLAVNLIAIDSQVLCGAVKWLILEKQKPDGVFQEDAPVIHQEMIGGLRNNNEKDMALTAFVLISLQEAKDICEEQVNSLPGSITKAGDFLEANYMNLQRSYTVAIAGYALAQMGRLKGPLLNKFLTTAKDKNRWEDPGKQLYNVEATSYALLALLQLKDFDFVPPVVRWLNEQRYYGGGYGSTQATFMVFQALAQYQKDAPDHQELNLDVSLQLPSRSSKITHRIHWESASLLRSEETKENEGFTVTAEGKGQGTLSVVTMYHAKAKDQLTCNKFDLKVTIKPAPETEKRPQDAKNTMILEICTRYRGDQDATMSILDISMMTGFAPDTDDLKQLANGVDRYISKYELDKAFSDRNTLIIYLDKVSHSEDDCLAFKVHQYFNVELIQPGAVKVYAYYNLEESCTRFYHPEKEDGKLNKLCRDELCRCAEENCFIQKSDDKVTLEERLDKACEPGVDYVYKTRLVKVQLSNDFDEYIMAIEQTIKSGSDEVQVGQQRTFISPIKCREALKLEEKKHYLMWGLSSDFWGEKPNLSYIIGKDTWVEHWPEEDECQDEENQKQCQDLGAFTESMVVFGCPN

[6] = target: T1, human iC3b (purified; Complement …); assay: Biacore; reference C3b
[7] = target: T2, human C3 (purified; Complement …); assay: Biacore; antibody captured on anti-mouse CM5 chip, four concentrations of antigen; Biacore; 6G1 captured on chip, C3 in solution: weak binding
[8] = target: T1, human iC3b (purified; Complement …); assay: Biacore; antibody captured on anti-mouse CM5 chip, four concentrations of antigen
Description: as §1

[9] = target: T1, human iC3b (purified; Complement …); assay: sandwich ELISA; reference C3b

T1 sequence (P01024 23-667 limits assumed, chain 1 of 3): as the sequence (P01024 23-667 limits assumed, form in doubt, chain 1 of 2) above
T1 sequence (P01024 749-1303 limits assumed, chain 2 of 3): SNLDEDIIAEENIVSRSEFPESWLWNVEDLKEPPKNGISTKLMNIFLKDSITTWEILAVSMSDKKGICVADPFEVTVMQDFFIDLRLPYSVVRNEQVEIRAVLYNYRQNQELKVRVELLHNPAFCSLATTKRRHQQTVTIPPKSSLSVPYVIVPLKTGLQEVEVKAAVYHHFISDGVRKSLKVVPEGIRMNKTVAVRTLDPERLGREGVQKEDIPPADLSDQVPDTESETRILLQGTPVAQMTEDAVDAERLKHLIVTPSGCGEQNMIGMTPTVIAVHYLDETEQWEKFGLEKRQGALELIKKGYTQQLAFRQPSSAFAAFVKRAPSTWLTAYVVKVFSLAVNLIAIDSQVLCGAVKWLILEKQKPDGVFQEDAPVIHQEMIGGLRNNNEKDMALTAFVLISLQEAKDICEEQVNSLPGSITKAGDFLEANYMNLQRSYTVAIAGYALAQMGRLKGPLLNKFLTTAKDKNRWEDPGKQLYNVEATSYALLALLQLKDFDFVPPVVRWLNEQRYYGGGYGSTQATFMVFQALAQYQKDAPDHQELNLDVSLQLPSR
T1 sequence (P01024 1321-1663 limits assumed, chain 3 of 3): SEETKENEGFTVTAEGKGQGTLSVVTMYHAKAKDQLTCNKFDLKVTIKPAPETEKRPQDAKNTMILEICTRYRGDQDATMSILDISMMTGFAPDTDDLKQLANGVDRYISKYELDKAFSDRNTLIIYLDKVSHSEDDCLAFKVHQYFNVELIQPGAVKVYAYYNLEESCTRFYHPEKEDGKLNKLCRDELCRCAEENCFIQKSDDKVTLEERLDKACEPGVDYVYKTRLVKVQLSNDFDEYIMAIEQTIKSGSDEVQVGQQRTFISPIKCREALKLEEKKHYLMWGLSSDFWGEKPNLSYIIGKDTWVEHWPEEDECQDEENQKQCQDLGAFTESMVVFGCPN

B1: humanized 5D2 version H1L1 (antibody, V domains shown)
VH: EVQLQQSGAEVKKPGASVKVSCKASGYTFTDNYYMNWVRQAPGQSLEWMGHIYPNNGVTSYNQKFRGRVTLTRDKSINTAYMELSSLTSEDTALYYCARNKLLSLYWYFDVWGQGTLVTVSS
VL: DIQMTQSPSSLSASVGDRVTITCRASVDIYNRLAWFQQKPGKAPKLLISGATSLATGVPSRFSGSGSGKDYTLTISSLQPEDFATYYCQQYWSTPWTFGGGTKLEIKR
notes: also called 5D2 H1L1
- binding result [1]: binds

B2: humanized 5D2 version H2L1 (antibody, V domains shown)
VH: EVQLQQSGAEVKKPGASVKVSCKASGYTFTDNYYMNWVRQAPGQSLEWMGHIYPNNGVTSYNQKFRGRVTITRDKSINTAYMELSSLTSEDTAVYYCARNKLLSLYWYFDVWGQGTLVTVSS
VL: DIQMTQSPSSLSASVGDRVTITCRASVDIYNRLAWFQQKPGKAPKLLISGATSLATGVPSRFSGSGSGKDYTLTISSLQPEDFATYYCQQYWSTPWTFGGGTKLEIKR
notes: also called 5D2 H2L1
- binding result [1]: binds

B4: mouse monoclonal antibody 6G1 (antibody, V domains shown)
VH: QIQLVQSGPELKKPGETVKISCKASGYTFTNYGMNWVKQAPGKDLKWMGWINTYTGEPRYADEFKGRFAFSLETSASTAYLQINNLKNEDMATYFCAKGGYPHYYSMDYWGQGTSVTVSS
VL: DIQMTQSTSSLSASLGDRVTISCRASQDINNYLNWYQQKPDGTIKLLIYYTSKLHSGVPSRFSGSGSGRDYSLTISNLEQEDIATYFCQQGNTLPRTFGGGTKLEIKR
notes: Mouse hybridoma antibody; also called m6G1
- fold specificity for iC3b vs. C3 or C3b [3]: > 2 fold
- fold difference in KD, iC3b relative to C3 [4]: > 10 fold
- Kd [5]: 2100 nM
- fold higher affinity constant for iC3b than C3b [6]: ≥ 10 fold
- koff [7]: 0.028 s⁻¹
- kon [7]: 13000 M⁻¹ s⁻¹
- Kd [8]: 43.3 nM
- kon [8]: 98000 M⁻¹ s⁻¹

B6: humanized 6G1 version H3L3 (antibody, V domains shown)
VH: QVQLVQSGSELKKPGASVKVSCKASGYTFTNYGMNWVKQAPGQDLKWMGWINTYTGEPRYADEFKGRFVFSLDTSVSTAYLQISSLKAEDTATYYCARGGYPHYYSMDYWGQGTTVTVSS
VL: DIQMTQSPSSLSASVGDRVTITCRASQDINNYLNWYQQKPGKTPKLLIYYTSKLHSGVPSRFSGSGSGRDYILTISSLQPEDIATYYCQQGNTLPRTFGGGTKVEIKR
notes: Only variable regions are tied to it; also called Hu6G1 H3L3
- EC50 (read off the curve) [2]: ~0.08 µg/mL

The remaining lines, values ahead:

- EC50 (read off the curve) [2]: ~0.08 µg/mL
B3: chimeric 6G1 (antibody, V domains shown)
VH: QIQLVQSGPELKKPGETVKISCKASGYTFTNYGMNWVKQAPGKDLKWMGWINTYTGEPRYADEFKGRFAFSLETSASTAYLQINNLKNEDMATYFCAKGGYPHYYSMDYWGQGTSVTVSS
VL: DIQMTQSTSSLSASLGDRVTISCRASQDINNYLNWYQQKPDGTIKLLIYYTSKLHSGVPSRFSGSGSGRDYSLTISNLEQEDIATYFCQQGNTLPRTFGGGTKLEIKR
notes: also called chi-6G1

- fold higher affinity constant for iC3b than C3b [9]: ≥ 2 fold
- fold higher affinity constant for iC3b than C3b [6]: ≥ 10 fold
B5: mouse monoclonal antibody 2H8r (antibody, V domains shown)
VH: QIQLVQSGPELKKPGETVKISCKASGYTFTNYGMNWVKQAPGKGLKWMGWINTYTGEPTYADDFKGRFAFSLETSASTAYLQINNLKNEDMATYFCAKGGYPHYYSMDYWGQGTSVTVSS
VL: DIQMTQTTSSLSASLGDRVTISCRASQDISNYLNWYQQKPDGTVKLLIYYTSRLHSGVPSRFSGSGSGTDYSLTISNLEQEDIATYFCQQGKTLPRTFGGGTKLEIKR
notes: also called m2H8r

- binding result [2]: binds
B7: humanized 6G1 version H3L5 (antibody, V domains shown)
VH: QVQLVQSGSELKKPGASVKVSCKASGYTFTNYGMNWVKQAPGQDLKWMGWINTYTGEPRYADEFKGRFVFSLDTSVSTAYLQISSLKAEDTATYYCARGGYPHYYSMDYWGQGTTVTVSS
VL: DIQMTQSPSSLSASVGDRVTITCRASQDINNYLNWYQQKPGKTPKLLIYYTSKLHSGVPSRFSGSGSGRDYILTISSLQPEDIATYFCQQGNTLPRTFGGGTKVEIKR
notes: H3 = 6G1 Hu v3 heavy, L5 = 6G1 Hu v5 light

- binding result [2]: binds
B8: huH1L5 (antibody, V domains shown)
VH: QVQLVQSGSELKKPGASVKVSCKASGYTFTNYGMNWVRQAPGQGLKWMGWINTYTGEPRYADEFKGRFVFSLDTSVSTAYLQISSLKAEDTATYYCARGGYPHYYSMDYWGQGTTVTVSS
VL: DIQMTQSPSSLSASVGDRVTITCRASQDINNYLNWYQQKPGKTPKLLIYYTSKLHSGVPSRFSGSGSGRDYILTISSLQPEDIATYFCQQGNTLPRTFGGGTKVEIKR
notes: also called humanized 6G1 version H1L5

- EC50 (read off the curve) [2]: ~0.1 µg/mL
B9: humanized 6G1 version H1L2 (antibody, V domains shown)
VH: QVQLVQSGSELKKPGASVKVSCKASGYTFTNYGMNWVRQAPGQGLKWMGWINTYTGEPRYADEFKGRFVFSLDTSVSTAYLQISSLKAEDTATYYCARGGYPHYYSMDYWGQGTTVTVSS
VL: DIQMTQSPSSLSASVGDRVTITCRASQDINNYLNWYQQKPGKTPKLLIYYTSKLHSGVPSRFSGSGSGRDYIFTISSLQPEDIATYYCQQGNTLPRTFGGGTKVEIKR
notes: H1 = 6G1 Hu v1 heavy, L2 = 6G1 Hu v2 light

- fold specificity for iC3b vs. C3 or C3b [3]: > 2 fold
- fold higher affinity constant for iC3b than C3b [6]: ≥ 10 fold
B10: mouse monoclonal antibody 5D2 (antibody, IgG1, V domains shown)
VH: EVQLQQSGPELVKPGASVKISCKASGYTFTDNYYMNWVKQSHGKSLEWIGHIYPNNGVTSYNQKFRGKATLTVDKSSNSAYMELRSLTSEDSALYYCARNKLLSLYWYFDVWGTGTSVTVSS
VL: DIQMTQSSSSFSVFLGDRITITCRASVDIYNRLAWFQQKPGNAPRLLISGATSLATGVPSRFSGSGSGKDYTLSITSLQTEDVTIYYCQQYWSTPWTFGGGTKLEIKR
notes: also called m5D2
